Experimental data published in the DeepSol protein solubility set.

Assay: soluble on expression in E. coli; label from the status in PepcDB or PDB records

Soluble on expression in E. coli, soluble:
MTRVAINGFGRIGRMVFRQAIKESAFEIVAINASYPSETLAHLIKYDTVHGKFDGTVEAFEDHLLVDGKMIRLLNNRDPKELPWTDLGVEVVIEATGKFNSKEKAILHVEAGAKKVILTAPGKNEDVTIVVGVNEDQLDITKHTVISNASCTTNCLAPVVKVLDEQFGIENGLMTTVHAYTNDQKNIDNPHKDLRRARACGQSIIPTTTGAAKALAKVLPHLNGKLHGMALRVPTPNVSLVDLVVDVKRDVTVEAINDAFKTVANGALKGIVEFSEEPLVSIDFNTNTHSAIIDGLSTMVMGDRKVKVLAWYDNEWGYSRRVVDLVTLVVDELAKQENVQHI
MAAQAVSLLREVARLEAPLEELRALQSVVQAVPLHELREQAAELRLRPLFSLLNQNNREQTALCVSILERLLQAVEPIHLARNLRLDLQRGLTHPDDSVKTLTLSQIGRIVENSEAVTEILNNAELLKQIVYCIGGENLSVAKAAIKSLSRISLTQAVLEALFESNLLDDLKNVMKTNDVVRYRVYELIIDISSVSSESLNYCTTSGLVTQLLKELTGEDVLVRATCIEMVTSLAYTHHGRQYLAQEGVIDQISNIIVGADSDPFSGFYLPGFVKFFGNLAVMDSPQQICERYPVFLEKVFEMADSQDPTMIGVAVDTVGILGSSVEGKQVLQKTGTRFERVLMRVGYQAKNASTELKIRCLDAVSSLLYLSPEQQTDDFLGMTESWFSSMSRDSLELFRGISNQPFPELHCAALKVFTAIADQPWAQRLMFNSPGFVEFVMDRSVEHDKASKDAKYELVKALANSKTVAEIFGNSNYLRLRAYLSEGPYYVKPVATTAVEGAD
MSLDVINKYGTPLKLSYLPKISSQIQKAKQWFGEAITNNNYSGTYTYCYCTKSSHFSFVLNEALKNDIHIETSSAYDIPIVRILFENNKITKATNVICNGYKRPEYTDYICDLINEGFNCTPILDNLDEITAYEKGIETSCNLGIRLATDEEPKFEFYTSRLGFRYNDVVQFYKEKIEPNPKFKLKMLHFFINTGIKDTTYYWSELSRFVHMYCTMKKINPDMDSIDIGGGWPIKTSVHFEYDYKYMADQIVKTIKKVCDEEGVPTPNIFTEFGSFTVGESGAAVYSVLGSKLQNDKEEWYMIDSSFITTLPDVWGLSQKYLLLAVNGWDKPYKKVKLGGITCDSMDYYNSEAHQNLVFMPELDEKEPTYIGFFHTGAYQESLGGYGGIQHCLVPAPKHILIDKDADGNFSYNLFAPEQTKESMLKILGYKAEGHHHHHH
MSLNSSFFKMMEKRSYNRFNQEQKAAITYDMKKHLRIIAGAGSGKTQTICAKAVYLMTQKQVDEERILMITFTRNAANELKKRVDNFSQRKTAVHIGTFHSIFFRIYNEICRKFPEVAMQGIQGDFSKDTAQKVNAVLQQLIRKYNLYIFDQYGEKTIASRLDYWQNMNLSVEEMVQLVKEKYDSIDKNARQPISERLYGLLTELQEQKRSQQLLEFNDVLQNLKSALENEEIQHYIGQKYDYLFIDEFQDTNPLQWEIVKRMTKENRIKLIVVGDDDQSIYGFRGSEPAYIKNFEKEYPTKTLFLLTNYRSRAAIVQGANRLISYNKNDRIPKAMIPAQKEAGVMEAYLFSDTKAESQWLIKQIQTFIQKNGKYKESIILYRSASQTQQLVQSLLKTNIPFVLEADSPYEGIFGIKSFQHFYQKIVHWQTALNLQKKNQAYQQLLRQLMADCYLKKSECDQYFSPKYQNIAVADYILSISPNLKSKSAEIREFEEALRKTDQHQEIYSLVQSYLHLPRIAKEIDQSDQEWIREEVKQHATFRRLQALSQETQATAKELKTRLIAYRQGKLDALCIQSIHKSKGLSYRNVFLIGCNEGSLPYNGATEKKVIDFNEIKAEPVTTIEEERRLFYVAMTRARNRLYLCVPQMKNSRKLKVSRFIKETGSRVKKGEGHHHHHH
QGVDQSPKPLIIGPEEDYDPGYFNNESDIIFQDLEKLKSRPAHLGVFLRYIFSQADPSPLLFYLCAEVYQQASPKDSRSLGKDIWNIFLEKNAPLRVKIPEMLQAEIDSRLRNSEDARGVLCEAQEAAMPEIQEQIHDYRTKRTLGLGSLYGENDLLDLDGDPLRERQVAEKQLAALGDILSAYAADRSAPMDFALNTYMSHAGIRLREA

Soluble on expression in E. coli, not soluble:
MGSDKIHHHHHHMTDSKCYAAIDIGSNAVRLLIKKVKNNENLANKRLSKVMLLRVPLRLGFDVFSLGEVSDAKVMKLRRLMKAFRQLMKIYEVINYRACATSAMRDAQNGKSVIKKVWKDTGINIEVINGQEEARMIYNNHIECLEDRAGNYIYVDVGGGSTEINFLINGELVQSLSYNIGTVRMLSNSVREGSWEQMKSDLTRLTADFQGVNIIGSGGNINKLYRLADKKDKKQSRLPITSLQELYDKLKVLTLEQRMEEFNLKTDRADVIVPAAGIFLIIAGIVKAEYIHVPVIGLADGIIDNLYAIDLKTE
DDGEPYALCVVATDITDQKQRERELARLTDEYAAVFENTNDAIALVDIEEPADDPTFRYVRTNEAYERQTGFDTESLTGQTPVEAAGPDIGRRIADHYKQCVSAGEPITFEERDLHPTGVWETQVTPIAADG
MIVGAGPAGIRAAAALADAGLHPVVIDEGNRAGGQIYRRPPDGFVRTPGQLYGSEAAKARALHAVFDRLTADGRLTHCAGSSVIAVQTGRLHVLGEGGVQVIFYDRLILATGASDRVAPVPGWQSAGVYSLGAAQIALKAQGVALGRRIVLMGSGPLLTLVGAQLIKAGADVAAVLDTSPWRQQMRGLWKLAARPLVALRGLALRARLGGRYHAGVSLEKIEADGQGVTAMRWRDAGGRQRLTPCDTIGMGWHLRAETHLADLAGCAFTYDEQWRQWLPKTDRMGRAGNGVYLAGDGVRLLGADGAEIAGRLAAAACLADLGFPAPTNAADLRELTRLERFAHGLVCAFPWPAAMVRALPDAAIVCRCENVTAGAVRDSVDLGGGEANRVKSLSRLGMGRCQGRYCHLAAVELAAAQSGCTPDAVGRFRGQAPARPAPIGAFLPEGLEHHHHHH
MRQYVCCNYNEKEIKMKKFHFTDTSLFWGFSEEEAESVLKCLSAVNKTYKKDEYIFRMGDTITSVGMVLTGSVQVIREDYWGNRQIIAVMGEGQLFGESYACAGGEPLMVSVMAEENTEVLFLEVGRLLTVCSMACRFHSRVIQNLLKVIAGRNLTLTTKIDHMSKKTIREKVLSYLSYQAEKQGKNRFEIPFNRQQLADYLAVDRSALSAELSKMQKEKLISYDRNHFILP
MGSDKIHHHHHHMEKLKLMTIVGTRPEIIRLSSTIKACDQYFNQILVHTGQNYDYTLNQIFFDDLELRQPDHYLEAVGSNLGETMGNIIAKTYDVLLREQPDALLILGDTNSCLAAVSAKRLKIPVFHMEAGNRCFDQNVPEEINRKIVDHVSDVNLPYTEHSRRYLLDEGFNKANIFVTGSPMTEVIEAHRDKINHSDVLNKLGLAPAAYILVSAHREENIDNEKNFKSLMNAINDIAKKYKMPVIYSTHPRSWKKIEESKFEFDPLVKQLKPFGFFDYNALQKDAFVVLSDSGTLSEESSILKFPGVLIRTSTERPEVLDKGTVIVGGITYNNLIQSVELAREMQNNNEPMIDAIDYKDTNVSTKVVKIIQSYKDIINRNTWRK
MSLRVQLILHLEIPKEVCRSLEVDNYINNSIEINLKCEKKPTLYIKTHSIGSLKSILDDFFRCQNAAMEVYNLIKTYTIRNVTKDDLDDFLELYFKAYRGFDKYYYKKKKWARWYFKWLMKRDEDGFFVCEVNGKPVGFVACDCNWISNIEKREVAEIHEIFVDPDFRGRGIGTALINKAIEYAKKRGRRIVELWVGVENKGAIEFYKRLGFEEKEVVKGWLRMVKRIEGHHHHHH
MGSDKIHHHHHHMPFSSAALHALLQPGVSERWQAVQRLLHPEMLVLANRAAERAAALLPQQWPLYELSFKSRRAIDRGGGRRDPITDYWFAFDRPPRGAGVMLTVSGIERTVTVGLQLWGVRRPQLAHLWSQARPVWEALIDRIEHEGQARFAGRRPPMTGMRWIDHYLNSRAHYLWAGFVYDWNALPTAERLIDDICALLPLNEALMEQAEIDLATTNTLRETPARYLTGAPSVAQIVMSIKRRGMIIDERTLHAFHLAVQARPLVILAGPSGSGKTWLTRLYADALIGIGEGQPNPCYLLVAVQPDWHSARDLLGYYNSLTGLYQPTPFLNFLLKAAADPDQTYIVCLDEMNLARPEYYLAPILSAMEAVEGLIDLGTPLAETPLAGGGVVRNPIRLPINLRLIGTINVDESTFALSDKVLDRANLIELGTVDMAALALTVSDSKRSGLADIERHPAPPDCCRKAGRLPRLARDTWLRWAGNRYERFRSTRSSDSAAPATALAR
